Assay results taken from US20230348609A1 (WUXI BIOLOGICS SHANGHAI, published 2023).

Experiments:
[1] = molecular target: T1, human CD40, full-length, on cells (human, UniProt P25942 21-277); assay: cell-based or functional assay
[2] = molecular target: T1, human CD40, full-length, on cells; assay: FACS on Raji cells (human CD40 binding assay); Raji cells
Method: (§1) W352-CHOK1.hPro1.A7 (1×10⁵ cells/well), Raji (1×10⁵ cells/well) or A431 (5×10⁴ cells/well) cells were incubated with various concentrations of W3525 antibody (3-fold serially diluted from 100 nM to 0.0051 nM, or 5-fold serially diluted from 100 nM to 0.00128 nM) at 4° C. for 1 hour. After washing with 1×PBS/1% BSA, the secondary antibody, Alex647-labeled goat anti-human IgG (1:250) or R-PE-labeled goat anti-human IgG (1:150) was added and incubated with cells at 4° C. in dark for 1 hour. Anti-human CD40 antibodies BMK4 and BMK5 were used as positive controls. Human IgG1 and IgG2 isotype antibodies were used as isotype controls. The cells were then washed and re-suspended in 1×PBS/1% BSA. MFI of the cells was measured by a flow cytometer and analyzed by FlowJo. GraphPad Prism was used to plot the log of antibody concentration (x-axis) versus MFI (y-axis). The EC50 values were determined using four-parameter dose-response curve model.
(§2) The binding result of W3525 on W352-CHOK1.hPro1.A7, Raji and A431 cells are shown in FIGS. 1, 2 and 3, respectively.

[3] = molecular target: T1, human CD40, full-length, on cells; assay: cell-based or functional assay; remark: listed apart in the source
[4] = molecular target: T1, human CD40, full-length, on cells; assay: FACS on W352-CHOK1.hPro1.A7 cells (CHO-K1 with full-length human CD40); W352-CHOK1.hPro1.A7 cells
Method: as §1, §2

W352-cynoPro1.ECD.His = molecular target: T2, W352-cynoPro1.ECD.His (cynomolgus monkey, UniProt G7PG38 21-193); assay: SPR, Biacore T200; antibody captured by goat anti-human Fc; analyte W352-cynoPro1.ECD.His
T2 construct: range 21-193; Also used for the 'recombinant cynomolgus monkey CD40 extracellular domain' coated in the ELISA of 3.5; also called Cynomolgus monkey CD40 extracellular domain, His tag; W352-cPro1.ECD.His; not shown: His tag
Method: The affinity of W3525 to cynomolgus monkey CD40 was determined using Biacore T200. The process of immobilization was the same as that of Biacore 8K. The antibody W3525 was diluted to 33.35 nM in running buffer (1×HBS-EP+) and was captured onto Fc2 at a flow rate of 10 μL/min for 60 s. Seven concentrations (0, 1.56, 3.13, 6.25, 12.5, 25 and 50 nM) of analyte W352-cynoPro1.ECD.His were injected orderly to Fc1 and Fc2 at a flow rate of 30 μL/min for an association phase of 240 s, followed by 300 s dissociation. After each cycle, glycine solution (10 mM, pH 1.5) as regeneration buffer was injected to regenerate the chip.
Molecular weight of 29 kDa was used to calculate the molar concentration of W352-cPro1.ECD.His.

[5] = molecular target: T3, cynomolgus monkey CD40 on transiently transfected 293F cells (cynomolgus monkey, UniProt G7PG38 21-278); assay: FACS on 293F cells transiently transfected with cynomolgus monkey CD40
T3 construct: whole, on cells; also called cell surface cynomolgus monkey CD40
Method: Cynomolgus monkey CD40 transiently transfected 293F cells (2×10⁵ cells/well) were incubated with various concentrations of W3525 (3-fold serially diluted from 200 nM to 0.0102 nM) at 4° C. for 1 hour. After washing with 1×PBS/1% BSA, a secondary antibody, R-PE-labeled goat anti-human IgG (1:150) was added and incubated with cells at 4° C. in dark for 1 hour. The cells were washed and suspended and the MFI and EC50 values were determined as described above.

[6] = molecular target: T1, human CD40, full-length, on cells; assay: FACS on A431 cells (human CD40 binding assay); A431 cells
Method: as §1, §2

[7] = molecular target: T1, human CD40, full-length, on cells; assay: FACS competition on W352-CHOK1.hPro1.A7 cells; competitor W352-hpro1L1.ECD.mFc at 5 ug/mL
Method: W352-CHOK1.hPro1.A7 cells were plated in a 96-well plate at a density of 1×10⁵ cells/well. A constant concentration of W352-hPro1L1.EECD.mFc (5 μg/mL) diluted in 1×PBS/1% BSA was added to the cells, followed by serially diluted antibodies (3-fold serially diluted from 60 nM to 0.0274 nM in 1×PBS/1% BSA), and mixed well. The plate was incubated at 4° C. for 1 hour.

[8] = molecular target: T4, CD40 protein, rat, recombinant (His tag) (rat, UniProt A6JXD6 20-193); assay: ELISA, plate coated with 1 ug/mL recombinant CD40 extracellular domain
T4 construct: Bought protein; also called rat CD40; not shown: C-terminal His tag of the vendor's construct (SinoBiological 80151-R08H)
T4 sequence: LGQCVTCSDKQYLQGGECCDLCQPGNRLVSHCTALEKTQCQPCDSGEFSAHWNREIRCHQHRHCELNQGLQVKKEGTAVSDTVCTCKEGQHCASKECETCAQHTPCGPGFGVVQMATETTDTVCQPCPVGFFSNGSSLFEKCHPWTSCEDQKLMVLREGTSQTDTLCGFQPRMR
Method: (§3) Plate was pre-coated with 1 μg/mL of recombinant human CD40, OX40, 4-1BB, GITR or BCMA extracellular domain in 100 μL coating buffer (0.02 M Na₂CO₃ and 0.18 M NaHCO₃, pH9.2) per well at 4° C. overnight. Next day, the plate was washed with 1×PBST for one time. After 1-hour blocking using 200 μL of 1×PBS/2% BSA, the plate was washed using 1×PBST for 3 times. W3525 was added to the plate at a concentration of 66.7 nM and incubated at ambient temperature for 1 hour. Anti-CD40 antibodies BMK4 and BMK5, anti-OX40 antibody MEDI0562, anti-4-1BB antibody BMS-663513, anti-GITR antibody INCAGN01876 and anti-BCMA antibody EM801 were used as positive controls, respectively. Human IgG2 isotype antibody was used as isotype control. After incubation, the plate was washed using 1×PBST for 3 times. HRP-labeled goat anti-human IgG antibody diluted in 1×PBS/2% BSA at a ratio of 1:5000 was added and incubated for 1 hour. After washing with 1×PBST for 6 times, the color was developed by dispensing 100 μL of TMB substrate, and then reaction was stopped by adding 100 μL of 2M HCl. Absorbance was read at 450 nm and 540 nm using a microplate spectrophotometer. GraphPad Prism was used to plot the antibody concentration (x-axis) versus absorbance (y-axis). All samples were tested in duplicate.
(§4) Plate was pre-coated with 1 μg/mL of recombinant human, cynomolgus monkey, mouse, canine or rat CD40 extracellular domain in 100 μL coating buffer per well at 4° C. overnight. Then the ELISA procedure was performed as described above. Anti-human CD40 antibodies BMK4 and BMK5 were used as positive controls. Human IgG1 and IgG2 isotype antibodies were used as isotype controls.

[9] = molecular target: T5, CD40 protein, canine, recombinant (His tag) (canine, UniProt Q7YRL5 21-194); assay: as above
T5 construct: extracellular domain; Bought protein; also called canine CD40
T5 sequence (looked up): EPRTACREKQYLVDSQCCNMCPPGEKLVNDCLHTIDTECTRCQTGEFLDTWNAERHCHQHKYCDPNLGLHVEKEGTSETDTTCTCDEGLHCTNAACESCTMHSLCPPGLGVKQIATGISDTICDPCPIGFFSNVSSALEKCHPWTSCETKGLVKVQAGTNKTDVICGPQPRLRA
Method: as §3, §4

W352-mPro1.ECD.His = molecular target: T6, W352-mPro1.ECD.His (mouse, UniProt P27512 20-193); assay: as above
T6 construct: range 20-193; The ELISA of 3.5 says only 'recombinant mouse CD40 extracellular domain'; also called Mouse CD40 extracellular domain, His tag; mouse CD40; not shown: His tag
Method: as §3, §4

[10] = molecular target: T7, recombinant human 4-1BB extracellular domain (human, UniProt Q07011 24-186); assay: ELISA, plate coated with 1 ug/mL recombinant extracellular domain
T7 construct: extracellular domain
Method: as §3

[11] = molecular target: T8, recombinant human OX40 extracellular domain (human, UniProt P43489 29-214); assay: as above
T8 construct: extracellular domain
T8 sequence (looked up): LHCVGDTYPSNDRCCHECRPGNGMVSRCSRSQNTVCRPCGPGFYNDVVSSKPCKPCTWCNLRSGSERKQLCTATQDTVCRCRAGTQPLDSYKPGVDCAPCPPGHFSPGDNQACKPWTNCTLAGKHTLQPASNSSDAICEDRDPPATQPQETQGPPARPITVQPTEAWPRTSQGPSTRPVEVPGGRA
Method: as §3

[12] = molecular target: T9, recombinant human BCMA extracellular domain (human, UniProt Q02223 1-54); assay: as above
T9 construct: extracellular domain
T9 sequence (looked up): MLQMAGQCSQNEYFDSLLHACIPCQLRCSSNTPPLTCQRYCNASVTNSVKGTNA
Method: as §3

[13] = molecular target: T10, Human GITR protein (His tag, ECD) (human, UniProt Q9Y5U5 26-162); assay: as above
T10 construct: extracellular domain; Bought protein
T10 sequence (looked up): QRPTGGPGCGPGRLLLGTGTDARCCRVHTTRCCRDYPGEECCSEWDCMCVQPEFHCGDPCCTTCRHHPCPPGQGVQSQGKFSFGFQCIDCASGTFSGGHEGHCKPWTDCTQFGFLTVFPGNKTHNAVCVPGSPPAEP
Method: as §3

[14] = molecular target: T1, human CD40, full-length, on cells; assay: cell-based or functional assay; remark: listed apart in the source
W352-hPro1.ECD.His = molecular target: T11, W352-hPro1.ECD.His (human, UniProt P25942 21-193); assay: SPR, Biacore 8K; antibody captured by goat anti-human Fc; analyte W352-hPro1.ECD.His; 1:1 model
T11 construct: range 21-193; Also used for the 'recombinant human CD40 extracellular domain' coated in the ELISAs of 3.4 and 3.5; also called Human CD40 extracellular domain, His tag; human CD40 free protein; not shown: His tag
Method: The affinity of W3525 to human CD40 was determined using Biacore 8K. The activator was prepared by mixing 400 mM EDC and 100 mM NHS immediately prior to injection. The CMS sensor chip was activated for 420 s with the activator at a flow rate of 10 μL/min. Goat anti-human Fc IgG (30 μg/mL in 10 mM NaAc, pH 4.5) was then injected to the channels for 420 s at a flow rate of 10 μL/min The chip was deactivated by 1 M ethanolamine-HCl at a flow rate of 10 μL/min for 420 s. After immobilization, the antibody W3525 was diluted to 66.7 nM in running buffer (1×HBS-EP+) and was captured onto the channel Fc4 at a flow rate of 10 μL/min for 30 s. Seven concentrations (0, 1.5625, 3.125, 6.25, 12.5, 25 and 50 nM) of analyte W352-hPro1.ECD.His were injected orderly to the channels at a flow rate of 30 μL/min for an association phase of 90 s, followed by 300 s dissociation. Glycine solution (10 mM, pH 1.5) as regeneration buffer was injected following dissociation phase to regenerate the chip.
Molecular weight of 29 kDa was used to calculate the molar concentration of W352-hPro1.ECD.His.

T11 sequence (P25942 21-193 limits assumed): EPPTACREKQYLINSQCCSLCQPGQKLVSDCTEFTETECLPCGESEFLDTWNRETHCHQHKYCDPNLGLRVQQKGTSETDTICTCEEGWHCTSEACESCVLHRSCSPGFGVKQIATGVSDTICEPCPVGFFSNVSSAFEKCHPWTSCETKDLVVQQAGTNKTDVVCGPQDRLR
T1 sequence (P25942 21-277): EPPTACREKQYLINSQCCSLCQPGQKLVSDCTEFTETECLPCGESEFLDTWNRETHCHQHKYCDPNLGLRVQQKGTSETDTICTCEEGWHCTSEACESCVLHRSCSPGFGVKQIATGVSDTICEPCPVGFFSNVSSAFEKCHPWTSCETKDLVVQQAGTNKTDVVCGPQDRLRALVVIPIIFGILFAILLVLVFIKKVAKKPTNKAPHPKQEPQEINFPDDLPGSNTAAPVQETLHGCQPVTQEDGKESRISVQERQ
T7 sequence (Q07011 24-186): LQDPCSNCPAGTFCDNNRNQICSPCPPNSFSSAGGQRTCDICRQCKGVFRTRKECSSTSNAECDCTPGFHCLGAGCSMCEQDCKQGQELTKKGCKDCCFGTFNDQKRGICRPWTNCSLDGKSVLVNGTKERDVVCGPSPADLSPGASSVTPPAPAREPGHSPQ
T6 sequence (P27512 20-193 limits assumed): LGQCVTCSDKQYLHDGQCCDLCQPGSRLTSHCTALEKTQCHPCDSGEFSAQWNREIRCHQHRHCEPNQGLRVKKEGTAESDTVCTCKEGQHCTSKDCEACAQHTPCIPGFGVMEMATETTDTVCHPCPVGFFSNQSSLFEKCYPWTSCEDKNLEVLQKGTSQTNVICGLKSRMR

B1: W3525-1.9.16-P5-uIgG2K (antibody, V domains shown)
VH: QVQLVQSGAEVKKPGSSVKVSCKASGDTVSSYGISWVRQAPGQGLEWMGGSIPFFGTPNYAQKFQGRVTFTADESTSTAYMELSSLRSEDTAVYYCARARRGYSYGHYHYYAMDVWGQGTTVTVAS
VL: DTVMTQSPLSLPVTPGEPASISCRSGQSLLHNNAYNYLDWYLQKPGQSPQLLIYLGSNRASGVPDRFSGSGSGTDFTLKISRVEAEDVGVYYCMQALQTPLSFGGGTKVEIKR
notes: Fully human IgG2 kappa with wild-type human IgG2 constant region; also called W3525 antibody; final lead antibody
EC50, CD54 expression, DC activation assay [1]: 0.35 nM | EC50, CD80 expression, DC activation assay [1]: 0.37 nM | EC50, CD83 expression, DC activation assay [1]: 0.16 nM | EC50, CD86 expression, DC activation assay [1]: 0.56 nM | EC50, IL-12p40 release, DC activation assay [1]: 0.47 nM | EC50 [2]: 0.36 nM | EC50, NFκB reporter assay, W352-Ramos.NFκBRE.luc [3]: 1.4 nM | EC50, NFκB reporter assay, W352-U937.hPro1.NFκBRE.luc [3]: 1.3 nM | EC50 [4]: 1.1 nM | Kd (W352-cynoPro1.ECD.His): 8.47 nM | koff (W352-cynoPro1.ECD.His): 0.00377 s⁻¹ | kon (W352-cynoPro1.ECD.His): 444000 M⁻¹ s⁻¹ | EC50 [5]: 2.4 nM | EC50 [6]: 0.16 nM | IC50 [7]: 1.4 nM | binding result [8]: no binding | binding result [9]: no binding | binding result (W352-mPro1.ECD.His): no binding | binding result [10]: no binding (tested: 66.7 nM) | binding result [11]: no binding (tested: 66.7 nM) | binding result [12]: no binding (tested: 66.7 nM) | binding result [13]: no binding (tested: 66.7 nM) | EC50, B cell proliferation [14]: 0.16 nM | Kd (W352-hPro1.ECD.His): 7.12 nM | koff (W352-hPro1.ECD.His): 0.00405 s⁻¹ | kon (W352-hPro1.ECD.His): 569000 M⁻¹ s⁻¹
